± gives the standard deviation of the averaged measurements.
B1: library; a variant is named by its letters at N, in order (parent)
chain: GCUGUCACCGAGAAACUGUGAAGUAUAUCUUAAACCUGGGCACUUAAAAGAUAUAUGGAGUUAGUAGUGCAACCUGCUCGGUCUGAUGAGUCCNNNNNNGGACGAAACAGC

Assays:
cyclic di-GMP [1] = variants of: B1; assay: normalized RNA/DNA level without ligand (relative to sTRSVctl = 100) (log10 (% of sTRSVctl)); HEK293T; ligand: cyclic di-GMP (c-di-GMP-II aptamer); higher = less ribozyme self-cleavage, higher mRNA level; conditions: reporter: mCherry (pCS4076), ligand present: no
Method in brief: (§1)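 Ribozyme switch library plasmids with mCherry reporters (eGFP in certain ligand experiments) went into HEK293T cells at 4 µg per 6-well well. Where ligand was used, it was applied 1 h before transfection, and total RNA was extracted with EDTA 72 h later for reverse transcription, amplification, barcoding and sequencing. RNA level is the RNA-to-DNA read ratio normalized to a spiked-in non-cleaving sequence or to the leading sequences, then scaled and log-transformed. Scaling was ×100 with log10, the leading set comprised 25 sequences, and the cutoff was ≥100 DNA reads.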

cyclic di-GMP [2] = variants of: B1; assay: normalized RNA/DNA level with ligand (relative to sTRSVctl = 100) (log10 (% of sTRSVctl)); HEK293T; ligand: cyclic di-GMP (c-di-GMP-II aptamer); ligand concentration (+) RNA-Seq: 1 mM; higher = less ribozyme self-cleavage, higher mRNA level; conditions: reporter: mCherry (pCS4076), ligand present: yes
Method in brief: as §1

| Variant | normalized RNA/DNA level without ligand (log10) (cyclic di-GMP [1]) | normalized RNA/DNA level with ligand (log10) (cyclic di-GMP [2]) |
| --- | --- | --- |
| GCUGUCACCGAGAAACUGUGAAGUAUAUCUUAAACCUGGGCACUUAAAAGAUAUAUGGAGUUAGUAGUGCAACCUGCUCGGUCUGAUGAGUCCGCUGCUGGACGAAACAGC [GCUGCU] | 1.682 ± 0.0098 | 1.8 ± 0.11 |
| GCUGUCACCGAGAAACUGUGAAGUAUAUCUUAAACCUGGGCACUUAAAAGAUAUAUGGAGUUAGUAGUGCAACCUGCUCGGUCUGAUGAGUCCGCUUACGGACGAAACAGC [GCUUAC] | 1.53 ± 0.026 | 1.75 ± 0.075 |
| GCUGUCACCGAGAAACUGUGAAGUAUAUCUUAAACCUGGGCACUUAAAAGAUAUAUGGAGUUAGUAGUGCAACCUGCUCGGUCUGAUGAGUCCUCGUAGGGACGAAACAGC [UCGUAG] | 1.63 ± 0.059 | 1.82 ± 0.11 |
| GCUGUCACCGAGAAACUGUGAAGUAUAUCUUAAACCUGGGCACUUAAAAGAUAUAUGGAGUUAGUAGUGCAACCUGCUCGGUCUGAUGAGUCCAUCCAGGGACGAAACAGC [AUCCAG] | 1.719 ± 0.012 | 1.85 ± 0.13 |
| GCUGUCACCGAGAAACUGUGAAGUAUAUCUUAAACCUGGGCACUUAAAAGAUAUAUGGAGUUAGUAGUGCAACCUGCUCGGUCUGAUGAGUCCUUACGCGGACGAAACAGC [UUACGC] | 1.739 ± 0.011 | 1.86 ± 0.1 |
| GCUGUCACCGAGAAACUGUGAAGUAUAUCUUAAACCUGGGCACUUAAAAGAUAUAUGGAGUUAGUAGUGCAACCUGCUCGGUCUGAUGAGUCCUCCUAUGGACGAAACAGC [UCCUAU] | 1.63 ± 0.085 | 1.8 ± 0.097 |
| GCUGUCACCGAGAAACUGUGAAGUAUAUCUUAAACCUGGGCACUUAAAAGAUAUAUGGAGUUAGUAGUGCAACCUGCUCGGUCUGAUGAGUCCGUUACGGGACGAAACAGC [GUUACG] | 1.65 ± 0.075 | 1.81 ± 0.083 |
| GCUGUCACCGAGAAACUGUGAAGUAUAUCUUAAACCUGGGCACUUAAAAGAUAUAUGGAGUUAGUAGUGCAACCUGCUCGGUCUGAUGAGUCCCAUCCUGGACGAAACAGC [CAUCCU] | 1.6 ± 0.03 | 1.77 ± 0.1 |
| GCUGUCACCGAGAAACUGUGAAGUAUAUCUUAAACCUGGGCACUUAAAAGAUAUAUGGAGUUAGUAGUGCAACCUGCUCGGUCUGAUGAGUCCGACGCCGGACGAAACAGC [GACGCC] | 1.75 ± 0.092 | 1.83 ± 0.11 |
| GCUGUCACCGAGAAACUGUGAAGUAUAUCUUAAACCUGGGCACUUAAAAGAUAUAUGGAGUUAGUAGUGCAACCUGCUCGGUCUGAUGAGUCCACACCUGGACGAAACAGC [ACACCU] | 1.63 ± 0.031 | 1.81 ± 0.078 |
| GCUGUCACCGAGAAACUGUGAAGUAUAUCUUAAACCUGGGCACUUAAAAGAUAUAUGGAGUUAGUAGUGCAACCUGCUCGGUCUGAUGAGUCCACAAGGGGACGAAACAGC [ACAAGG] | 1.33 ± 0.17 | 1.54 ± 0.098 |
| GCUGUCACCGAGAAACUGUGAAGUAUAUCUUAAACCUGGGCACUUAAAAGAUAUAUGGAGUUAGUAGUGCAACCUGCUCGGUCUGAUGAGUCCCUUUUUGGACGAAACAGC [CUUUUU] | 1.611 ± 0.013 | 1.79 ± 0.11 |
| GCUGUCACCGAGAAACUGUGAAGUAUAUCUUAAACCUGGGCACUUAAAAGAUAUAUGGAGUUAGUAGUGCAACCUGCUCGGUCUGAUGAGUCCUUCCUAGGACGAAACAGC [UUCCUA] | 1.68 ± 0.018 | 1.83 ± 0.11 |
| GCUGUCACCGAGAAACUGUGAAGUAUAUCUUAAACCUGGGCACUUAAAAGAUAUAUGGAGUUAGUAGUGCAACCUGCUCGGUCUGAUGAGUCCGGUGUUGGACGAAACAGC [GGUGUU] | 1.63 ± 0.037 | 1.86 ± 0.094 |
| GCUGUCACCGAGAAACUGUGAAGUAUAUCUUAAACCUGGGCACUUAAAAGAUAUAUGGAGUUAGUAGUGCAACCUGCUCGGUCUGAUGAGUCCAAGCGCGGACGAAACAGC [AAGCGC] | 1.669 ± 0.011 | 1.84 ± 0.13 |
| GCUGUCACCGAGAAACUGUGAAGUAUAUCUUAAACCUGGGCACUUAAAAGAUAUAUGGAGUUAGUAGUGCAACCUGCUCGGUCUGAUGAGUCCGUUUCUGGACGAAACAGC [GUUUCU] | 1.711 ± 0.014 | 1.86 ± 0.097 |
| GCUGUCACCGAGAAACUGUGAAGUAUAUCUUAAACCUGGGCACUUAAAAGAUAUAUGGAGUUAGUAGUGCAACCUGCUCGGUCUGAUGAGUCCGCAGUCGGACGAAACAGC [GCAGUC] | 1.31 ± 0.064 | 1.51 ± 0.1 |
| GCUGUCACCGAGAAACUGUGAAGUAUAUCUUAAACCUGGGCACUUAAAAGAUAUAUGGAGUUAGUAGUGCAACCUGCUCGGUCUGAUGAGUCCGCGGCGGGACGAAACAGC [GCGGCG] | 1.842 ± 0.0045 | 1.9 ± 0.057 |
| GCUGUCACCGAGAAACUGUGAAGUAUAUCUUAAACCUGGGCACUUAAAAGAUAUAUGGAGUUAGUAGUGCAACCUGCUCGGUCUGAUGAGUCCGCGGCAGGACGAAACAGC [GCGGCA] | 1.82 ± 0.032 | 1.9 ± 0.12 |
| GCUGUCACCGAGAAACUGUGAAGUAUAUCUUAAACCUGGGCACUUAAAAGAUAUAUGGAGUUAGUAGUGCAACCUGCUCGGUCUGAUGAGUCCCUUCCAGGACGAAACAGC [CUUCCA] | 1.61 ± 0.089 | 1.78 ± 0.085 |
| GCUGUCACCGAGAAACUGUGAAGUAUAUCUUAAACCUGGGCACUUAAAAGAUAUAUGGAGUUAGUAGUGCAACCUGCUCGGUCUGAUGAGUCCGCCCGAGGACGAAACAGC [GCCCGA] | 1.62 ± 0.052 | 1.79 ± 0.079 |
| GCUGUCACCGAGAAACUGUGAAGUAUAUCUUAAACCUGGGCACUUAAAAGAUAUAUGGAGUUAGUAGUGCAACCUGCUCGGUCUGAUGAGUCCACACGCGGACGAAACAGC [ACACGC] | 1.554 ± 0.0051 | 1.76 ± 0.13 |
| GCUGUCACCGAGAAACUGUGAAGUAUAUCUUAAACCUGGGCACUUAAAAGAUAUAUGGAGUUAGUAGUGCAACCUGCUCGGUCUGAUGAGUCCCGCAGCGGACGAAACAGC [CGCAGC] | 1.75 ± 0.027 | 1.87 ± 0.074 |
| GCUGUCACCGAGAAACUGUGAAGUAUAUCUUAAACCUGGGCACUUAAAAGAUAUAUGGAGUUAGUAGUGCAACCUGCUCGGUCUGAUGAGUCCCACCGAGGACGAAACAGC [CACCGA] | 1.6252 ± 0.00013 | 1.8 ± 0.1 |
| GCUGUCACCGAGAAACUGUGAAGUAUAUCUUAAACCUGGGCACUUAAAAGAUAUAUGGAGUUAGUAGUGCAACCUGCUCGGUCUGAUGAGUCCCGUGCCGGACGAAACAGC [CGUGCC] | 1.75 ± 0.02 | 1.84 ± 0.093 |
| GCUGUCACCGAGAAACUGUGAAGUAUAUCUUAAACCUGGGCACUUAAAAGAUAUAUGGAGUUAGUAGUGCAACCUGCUCGGUCUGAUGAGUCCAAACCAGGACGAAACAGC [AAACCA] | 1.57 ± 0.054 | 1.76 ± 0.094 |

From the supplement of paper PMC6757056
